Data from US20250257122A1 (UNITED STATES OF AMERICA AS REPRESENTED BY THE SECRETARY OF …, published 2025).

T1: cotton leafroll dwarf virus (CLRDV) N-terminal readthrough domain (^NRTD), purified soluble construct (cotton leafroll dwarf virus (CLRDV), …)
T1 construct: Expressed in E. coli; Calculated MW 26.410 kDa; also called CLRDV ^NRTD; CLRDV ^NRTD (TX)
T1 chain: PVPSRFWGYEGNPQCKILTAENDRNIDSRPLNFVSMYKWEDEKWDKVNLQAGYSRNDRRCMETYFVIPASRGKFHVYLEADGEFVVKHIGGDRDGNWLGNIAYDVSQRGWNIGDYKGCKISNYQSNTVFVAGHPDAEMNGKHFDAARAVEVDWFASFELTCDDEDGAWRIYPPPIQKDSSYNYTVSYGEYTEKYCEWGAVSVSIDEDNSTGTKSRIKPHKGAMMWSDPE

B1: D12 camelid single-chain antibody (VHH)
VHH: QVQLQESGGGLVQAGDSLRLSCAASGRTFNSFAMGWFRQAPGKEREFVAAIKWNGVTTDYADSMKGRFTISRDNAKNTMYLQMNTLKPEDTAIYYCAAKPTWATTNGRPTAYDYWGQGTQVTVSS
notes: Alpaca VHH, cloned into pMES4 and expressed in E. coli; also called D12 single-chain antibody
B2: C12 camelid single-chain antibody (VHH)
VHH: QVQLQESGGGLAQAGDSLRLSCAASGRTFNSFAMGWFRQAPGKEREFVAAIKWNGVTTDYADSMRGRFTISRDNAKNTMYMQMNTLKPEDTAIYYCAAKPTWATTNGRPTAYDYWGQGTQVTVSS
notes: Alpaca VHH, cloned into pMES4 and expressed in E. coli; also called C12 single-chain antibody
B3: A12 camelid single-chain antibody (VHH)
VHH: QVQLQESGGGLAQAGDSLRLSCAASGRTFNSFAMGWFRQAPGKEREFVAAINWNGVTTDYADSMKGRFTISRDNAKNTMYLQMNTLKPEDTAIYYCAAKPTWATTNGRPAAYDYWGQGTQVTVSS
notes: Alpaca VHH, cloned into pMES4 and expressed in E. coli; also called A12 single-chain antibody

Experiments:
[1] = target: T1, cotton leafroll dwarf virus (CLRDV) …; test: phage display panning and screening (legend of FIG. 3)
Procedure: (§1) Isolation and screening for specific single-chain antibodies was carried out as detailed by K. M. Chow, et al. (2019, “Immunization of Alpacas (Lama pacos) with Protein Antigens and Production of Antigen-specific Single Domain Antibodies,” J. Vis. Exp. (143), e58471. doi: 10.3791/58471). Briefly, alpacas were immunized with ˜400 μg of a mixture of both TX and AL CP or ^NRTD preparations that contained 50% (v/v) of adjuvant. Five subsequent weekly boosting injections were provided using ˜200 μg of the same mixture detailed above. Three to five days after the last injection, 50 mL of blood was collected, and lymphocytes purified. A cDNA library was prepared using oligodT primers and RNA extracted from lymphocytes. A bacteriophage library was obtained from the cDNA library by cloning with restriction enzymes into the phage display vector pMES4. Expression of the insert fused to gene III of the filamentous phage was used for production of the phage solution and single-domain antibody panning. After screening, two single-chain antibodies that recognized the CRLDV CP were identified and named B6 (SEQ ID NO: 8) and E3 (SEQ ID NO: 4) and three single-chain antibodies that recognized the CRLDV ^NRTD were identified and names C12 (SEQ ID NO: 12), A12 (SEQ ID NO: 16), and D12 (SEQ ID NO: 20), respectively.

[2] = target: T1, cotton leafroll dwarf virus (CLRDV) …; test: phage display panning and screening
Procedure: as §1

Row | Binder | binding result [1] | binding result [2]
1 | B1 | binds | 
2 | B2 |  | binds
3 | B3 |  | binds
